Laboratory results: patent publication US20050196403A1
Where two headings read alike, the source gives them in different places. Non-standard residues stand in square brackets, D forms with d. No end group written: not given here. Abu = CC[C@H](N)C(=O)O

Columns and labels:
HLA-A*2401 (human) = assay: competition with 125I probe peptide, purified HLA class I
HLA-A*0203 (Human) [1] = assay: competition vs 125I probe, purified HLA; settings: remark: other sources report otherwise
HLA-A*0206 (Human) [2] = assay: competition vs 125I probe, purified HLA; settings: remark: other sources report otherwise
HLA-A*3101 (Human) [3] = settings: remark: other sources report otherwise
HLA-A*0301 (Human) [4] = settings: remark: other sources report otherwise
HLA-A*1101 (Human) [5] = settings: remark: other sources report otherwise
HLA-A*6801 (Human) [6] = settings: remark: other sources report otherwise
HLA-A*3301 (Human) [7] = settings: remark: other sources report otherwise
HLA-A*0301 (Human) [8] = settings: remark: other sources report otherwise; remark: listed apart in the source
HLA-A*0301 (Human) [9] = settings: remark: other sources report otherwise; remark: listed apart in the source
HLA-A*1101 (human) [10] = assay: inhibition of radiolabeled probe peptide binding to purified HLA, gel filtration; settings: remark: other sources report otherwise
HLA-A*3301 (human) [11] = assay: competition with 125I probe peptide, purified HLA class I; settings: remark: other sources report otherwise
HLA-A*6801 (human) [12] = assay: as above; settings: remark: other sources report otherwise
HLA-A*1101 (human) [13] = assay: as above; settings: remark: other sources report otherwise
HLA-A*3101 (human) [14] = assay: as above; settings: remark: other sources report otherwise
HLA-A*0301 (human) [15] = assay: as above; settings: remark: other sources report otherwise
HLA-A*0206 (human) [16] = assay: as above; settings: remark: other sources report otherwise
HLA-A*0203 (human) [17] = assay: as above; settings: remark: other sources report otherwise
HLA-A*6802 (human) = assay: as above; settings: remark: other sources report otherwise

TYQGSYGFRF [57.0096 … p53.102.F10] gave an IC50 (HLA-A*2401 (human)) of 30 nM.

Work on KMF[Abu]QLAKV [p53.132B4V9 KMFBQLAKV] yielded an IC50 (HLA-A*0203 (Human) [1]) of 9.1 nM and an IC50 (HLA-A*0206 (Human) [2]) of 37 nM.

RMPEAAPPVA [p53.65 … (10-mer)] was tested, and the IC50 (HLA-A*0206 (Human) [2]) was 841 nM.

With RTEEENLRK [p53 peptide … (position 283, 9 amino acids)] the binding affinity ratio (IC50 of standard peptide/IC50 of test peptide) (HLA-A*3101 (Human) [3]) was 0.0002, the binding affinity ratio (IC50 of standard peptide/IC50 of test peptide) (HLA-A*0301 (Human) [4]) was 0.0015 and the binding affinity ratio (IC50 of standard peptide/IC50 of test peptide) (HLA-A*1101 (Human) [5]) was 0.091. For the same binder, the binding affinity ratio (IC50 of standard peptide/IC50 of test peptide) (HLA-A*6801 (Human) [6]) was 0.0001 and the binding affinity ratio (IC50 of standard peptide/IC50 of test peptide) (HLA-A*3301 (Human) [7]) was 0.0006.

With RTEEENLRKK [p53 peptide … (position 283, 10 amino acids)] the binding affinity ratio (IC50 of standard peptide/IC50 of test peptide) (HLA-A*0301 (Human) [4]) was 3.3 and the binding affinity ratio (IC50 of standard peptide/IC50 of test peptide) (HLA-A*1101 (Human) [5]) was 0.008.

In the case of RVRAMAIYK [p53 peptide … (position 156, 9 amino acids)], the binding affinity ratio (IC50 of standard peptide/IC50 of test peptide) (HLA-A*3101 (Human) [3]) is reported as 3.7, the binding affinity ratio (IC50 of standard peptide/IC50 of test peptide) (HLA-A*0301 (Human) [4]) is reported as 1.5 and the binding affinity ratio (IC50 of standard peptide/IC50 of test peptide) (HLA-A*1101 (Human) [5]) is reported as 0.73. For the same binder, the binding affinity ratio (IC50 of standard peptide/IC50 of test peptide) (HLA-A*6801 (Human) [6]) was 0.003 and the binding affinity ratio (IC50 of standard peptide/IC50 of test peptide) (HLA-A*3301 (Human) [7]) was 0.0063.

Work on SSCMGGMNR [p53 peptide … (position 240, 9 amino acids)] yielded a binding affinity ratio (IC50 of standard peptide/IC50 of test peptide) (HLA-A*0301 (Human) [8]) of 0.02, a binding affinity ratio (IC50 of standard peptide/IC50 of test peptide) (HLA-A*0301 (Human) [4]) of 0.02 and a binding affinity ratio (IC50 of standard peptide/IC50 of test peptide) (HLA-A*1101 (Human) [5]) of 1.4.

Work on SSCMGGMNRR [p53 peptide … (position 240, 10 amino acids)] yielded a binding affinity ratio (IC50 of standard peptide/IC50 of test peptide) (HLA-A*0301 (Human) [8]) of 0.0001, a binding affinity ratio (IC50 of standard peptide/IC50 of test peptide) (HLA-A*0301 (Human) [4]) of 0.0001 and a binding affinity ratio (IC50 of standard peptide/IC50 of test peptide) (HLA-A*1101 (Human) [5]) of 0.086.

Binder TSRHKKLMFK [p53 peptide … (position 377, 10 amino acids)] has a binding affinity ratio (IC50 of standard peptide/IC50 of test peptide) (HLA-A*0301 (Human) [8]) of 0.05, a binding affinity ratio (IC50 of standard peptide/IC50 of test peptide) (HLA-A*0301 (Human) [4]) of 0.05 and a binding affinity ratio (IC50 of standard peptide/IC50 of test peptide) (HLA-A*1101 (Human) [5]) of 0.0052.

In the case of TSSSPQPK [p53 peptide TSSSPQPK (position 312, 8 amino acids)], the binding affinity ratio (IC50 of standard peptide/IC50 of test peptide) (HLA-A*1101 (Human) [5]) is reported as 0.0019.

VTCTYSPALNK [p53 peptide … (position 122, 11 amino acids)] gave a binding affinity ratio (IC50 of standard peptide/IC50 of test peptide) (HLA-A*0301 (Human) [8]) of 0.07, a binding affinity ratio (IC50 of standard peptide/IC50 of test peptide) (HLA-A*0301 (Human) [4]) of 0.07 and a binding affinity ratio (IC50 of standard peptide/IC50 of test peptide) (HLA-A*1101 (Human) [5]) of 0.12. For the same binder, the binding affinity ratio (IC50 of standard peptide/IC50 of test peptide) (HLA-A*6801 (Human) [6]) was 0.0068.

With GFLHSGTAK [p53 peptide … (position 112)] the binding affinity ratio (IC50 of standard peptide/IC50 of test peptide) (HLA-A*0301 (Human) [9]) was 0.0014 and the binding affinity ratio to standard peptide (HLA-A*1101 (human) [10]) was 0.0001.

KGQSTSRHK [p53 peptide … (position 373)] was tested, and the binding affinity ratio (IC50 of standard peptide/IC50 of test peptide) (HLA-A*0301 (Human) [9]) was 0.0014 and the binding affinity ratio to standard peptide (HLA-A*1101 (human) [10]) was 0.0002.

Work on LGFLHSGTAK [p53 peptide … (position 111)] yielded a binding affinity ratio (IC50 of standard peptide/IC50 of test peptide) (HLA-A*0301 (Human) [9]) of 0.0001 and a binding affinity ratio to standard peptide (HLA-A*1101 (human) [10]) of 0.0002.

Binder RTEEENLRK has a binding affinity ratio (IC50 of standard peptide/IC50 of test peptide) (HLA-A*0301 (Human) [9]) of 0.0015 and a binding affinity ratio to standard peptide (HLA-A*1101 (human) [10]) of 0.091.

Work on RTEEENLRKK yielded a binding affinity ratio (IC50 of standard peptide/IC50 of test peptide) (HLA-A*0301 (Human) [9]) of 3.3.

In the case of RVRAMAIYK [p53 peptide … (position 156)], the binding affinity ratio (IC50 of standard peptide/IC50 of test peptide) (HLA-A*0301 (Human) [9]) is reported as 1.5 and the binding affinity ratio to standard peptide (HLA-A*1101 (human) [10]) is reported as 0.73.

Work on TCTYSPALNK [p53 peptide … (position 123, 10 amino acids)] yielded a binding affinity ratio (IC50 of standard peptide/IC50 of test peptide) (HLA-A*0301 (Human) [8]) of 0.0056.

SSCMGGMNR was tested, and the binding affinity ratio to standard peptide (HLA-A*1101 (human) [10]) was 1.4.

Work on SSCMGGMNRR yielded a binding affinity ratio to standard peptide (HLA-A*1101 (human) [10]) of 0.086.

TCTYSPALNK [p53 peptide … (position 123)] was tested, and the binding affinity ratio to standard peptide (HLA-A*1101 (human) [10]) was 0.012.

TSRHKKLMFK [p53 peptide … (position 377)] showed a binding affinity ratio to standard peptide (HLA-A*1101 (human) [10]) of 0.0052.

TSSSPQPK [p53 peptide TSSSPQPK (position 312)] gave a binding affinity ratio to standard peptide (HLA-A*1101 (human) [10]) of 0.0019.

Binder VTCTYSPALNK [p53 peptide … (position 122)] has a binding affinity ratio to standard peptide (HLA-A*1101 (human) [10]) of 0.12.

Binder YGFRLGFLH [p53 peptide … (position 107)] has a binding affinity ratio to standard peptide (HLA-A*1101 (human) [10]) of 0.26.

KVYQGSYGFR [1371.14 … p53.101.V2] gave an IC50 (HLA-A*3301 (human) [11]) of 10000 nM.

B1: 1371.16 BVYSPALNK p53.124.B1V2 (peptide)
peptide: BVYSPALNK
modifications: here or on the partner: B at position 1 is alpha-amino butyric acid (in place of cysteine)
With B1 the IC50 (HLA-A*6801 (human) [12]) was 500 nM and the IC50 (HLA-A*1101 (human) [13]) was 12.8 nM.

Binder SV[Abu]MGGMNK [1371.24 SVBMGGMNK p53.240.V2B3K9] has an IC50 (HLA-A*6801 (human) [12]) of 29.6 nM, an IC50 (HLA-A*3101 (human) [14]) of 9000 nM and an IC50 (HLA-A*1101 (human) [13]) of 17.1 nM. The IC50 (HLA-A*0301 (human) [15]) was 12.5 nM.

SV[Abu]MGGMNRK [1371.25 SVBMGGMNRK p53.240.V2B3K10] showed an IC50 (HLA-A*6801 (human) [12]) of 17 nM and an IC50 (HLA-A*1101 (human) [13]) of 75 nM.

In the case of KMFCQLAKT [… p53.132], the IC50 (HLA-A*0206 (human) [16]) is reported as 92.5 nM and the IC50 (HLA-A*0203 (human) [17]) is reported as 19.6 nM.

In the case of FLHSGTAKSV [1329.09 … p53.113], the IC50 (HLA-A*6802 (human)) is reported as 80000 nM.
